Measured values published in patent US20050026827A1, “Octapeptide bombesin analogs” (Societe de Conseils de Recherches et d'Applications …, priority 1987, published 2005).
“Also recorded” adds a separate entry of the source. Values belong to the molecule of their own block, whether it stands above or below them. Non-standard residues stand in square brackets, D forms with d. Residues, ends and D or L forms follow the SMILES beside them. dPhe(F5) = N[C@H](Cc1c(F)c(F)c(F)c(F)c1F)C(=O)O; Sta = CC(C)C[C@H](N)[C@@H](O)CC(=O)O; pGlu = O=C1CC[C@@H](C(=O)O)N1; dNMeA = CN[C@H](C)C(=O)O

Key:
bombesin receptor = target: T1, bombesin receptor (Rattus norvegicus, UniProt P52500); experiment: Displacement of 125I-labeled bombesin from rat pancreatic acini cells; type: binding; details: read-out: half-maximal effective dose, displacement of 125I-labeled bombesin
T1 construct: displace ^125I-labeled bombesin from rat pancreatic acini cells; from tissue; host or cells: rat pancreatic acini cells
Source text: D-Phe-Gln-Trp-Ala-Val-N-methyl-D-Ala-His-Leu-methylester and D-F5-Phe-Gln-Trp-Ala-Val-D-Ala-His-Leu-methylester were examined for their abilities to displace ^125I-labeled bombesin from rat pancreatic acini cells and to inhibit amylase release from these cells produced by bombesin itself.

[1] = tested on: rat anterior pituitary cells; experiment: Growth hormone release from primary culture of rat anterior pituitary cells (agonist potency); type: cell-based
Protocol: (§1) Phase 7—Inhibition of Growth Hormone Release
(§2) Anterior pituitaries from adult male rats, weighing 200-250 g and housed under controlled conditions (lights on from 0500-1900 h), were dispersed using aseptic technique by a previously described trypsin/DNase method (Heiman et al., Endocrinology, 1985, 116, 410) derived from other methods (Hoefer et al., Mol. Cell. Endocrinol., 1984, 35, 229).
(§3) The dispersed cells were diluted with sterile-filtered Dulbecco's modified Eagle medium (MEM) (Gibco Laboratories, Grand Island, N.Y. (GIBCO)), which was supplemented with fetal calf serum (2.5%; GIBCO), horse serum (3%; GIBCO), fresh rat serum (10% stored on ice for no longer than 1 h) from the pituitary donors, MEM nonessential amino acids (1%; GIBCO), gentamycin (10/mg/mL; Sigma) and nystatin (10,000 U/mL; GIBCO). The cells were counted with a hemacytometer (approximately 2,000,000 cells per pituitary) and randomly plated at a density of 200,000 per well (Co-star cluster 24; Rochester Scientific Co., Rochester, N.Y.). […]
(§4) Growth hormone (GH) in plasma and media was measured by a standard double antibody radioimmunoassay using components supplied by the NIDDK and the National Hormone and Pituitary Program, University of Maryland School of Medicine. […] Potencies and 95% confidence intervals were calculateds by 4-point assay (Pugsley, Endocrinology, 1946, 39, 161). […]

[2] = tested on: rat anterior pituitary cells; type: cell-based; details: vs 1 nM GRF(1-29)NH2; read-out: IC50 (antagonist of GRF-stimulated GH secretion)
Protocol: as §1, §2, §3, §4

[3] = target: 3T3 fibroblast bombesin receptors (murine (3T3 murine fibroblasts)) (UniProt P21729)
[4] = target: 3T3 fibroblast bombesin receptors (murine (3T3 murine fibroblasts)) (UniProt P21729); experiment: inhibition of [125I]GRP binding to 3T3 cell membranes
[5] = target: bombesin receptor of rat pancreatic acini cells (rat) (UniProt P52500); experiment: displacement of 125I-labeled bombesin from rat pancreatic acini cells
[6] = target: bombesin receptor of rat pancreatic acini cells (rat) (UniProt P52500)
[7] = target: adenylate cyclase activity in rat anterior pituitary homogenates; details: Robberecht et al.; cited from earlier work
[8] = target: 3T3 fibroblast bombesin receptors (murine (3T3 murine fibroblasts), UniProt P21729); experiment: inhibition of [125I]GRP binding to 3T3 cell membranes

T1 sequence (P52500 whole entry): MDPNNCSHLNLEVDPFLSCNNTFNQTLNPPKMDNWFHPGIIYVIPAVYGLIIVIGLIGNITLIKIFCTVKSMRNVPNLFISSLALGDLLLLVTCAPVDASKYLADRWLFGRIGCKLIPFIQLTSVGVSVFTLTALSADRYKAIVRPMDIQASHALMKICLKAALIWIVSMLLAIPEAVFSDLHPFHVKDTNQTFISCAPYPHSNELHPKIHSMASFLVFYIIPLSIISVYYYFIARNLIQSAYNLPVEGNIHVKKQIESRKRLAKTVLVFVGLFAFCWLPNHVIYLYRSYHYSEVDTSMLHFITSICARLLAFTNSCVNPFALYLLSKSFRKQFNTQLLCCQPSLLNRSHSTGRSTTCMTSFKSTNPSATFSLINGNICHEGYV
3T3 fibroblast bombesin receptors (murine (3T3 murine fibroblasts)), sequence (P21729 whole entry): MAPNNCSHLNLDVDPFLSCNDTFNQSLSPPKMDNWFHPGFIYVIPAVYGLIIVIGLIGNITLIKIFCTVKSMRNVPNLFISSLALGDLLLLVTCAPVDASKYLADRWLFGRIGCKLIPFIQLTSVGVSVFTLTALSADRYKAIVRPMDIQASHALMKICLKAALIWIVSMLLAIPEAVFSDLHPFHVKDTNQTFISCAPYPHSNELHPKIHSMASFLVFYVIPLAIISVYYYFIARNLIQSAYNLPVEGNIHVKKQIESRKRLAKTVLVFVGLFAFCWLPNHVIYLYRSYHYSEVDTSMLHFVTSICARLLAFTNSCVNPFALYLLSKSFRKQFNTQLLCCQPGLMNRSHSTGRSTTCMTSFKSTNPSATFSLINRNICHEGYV

Molecule: CC[C@H](C)[C@H](NC(=O)[C@H](C)NC(=O)[C@H](CC(=O)O)NC(=O)[C@H](C)NC(=O)[C@@H](N)Cc1ccc(O)cc1)C(=O)N[C@@H](Cc1ccccc1)C(=O)N[C@H](C(=O)N[C@@H](CC(N)=O)C(=O)N[C@@H](CO)CN[C@@H](Cc1ccc(O)cc1)C(=O)N[C@@H](CCCNC(=N)N)C(=O)N[C@@H](CCCCN)C(=O)N[C@H](C(=O)N[C@@H](CC(C)C)C(=O)NCC(=O)N[C@@H](CCC(N)=O)C(=O)N[C@@H](CC(C)C)C(=O)N[C@@H](CO)C(=O)N[C@@H](C)C(=O)N[C@@H](CCCNC(=N)N)C(=O)N[C@@H](CCCCN)C(=O)N[C@@H](CC(C)C)C(=O)N[C@@H](CC(C)C)C(=O)N[C@@H](CCC(N)=O)C(=O)N[C@@H](CC(=O)O)C(=O)N[C@H](C(=O)N[C@@H](CCSC)C(=O)N[C@@H](CO)C(=O)N[C@@H](CCCNC(=N)N)C(N)=O)[C@@H](C)CC)C(C)C)[C@@H](C)O [VIII, [Ser^9ψ[CH2NH]Tyr^10]-GRF(1-29)NH2]
agonist activity in the potency assay (in words) ([1]; doses as high as 0.1 mM): inactive; also recorded: all trace of agonist activity was lost
IC50 [2]: ~10 µM

Molecule: BIM-26114, D-Nal-Gln-Trp-Ala-Val-Gly-His-Leuψ[CH2NH]Leu-NH2 (Litorin analog) (peptide)
bombesin-stimulated [3H]Thymidine uptake, IC50 [3]: 28 nM
IC50 [4]: 23.5 nM

Molecule: GRF(1-29)NH2 [reference compound]
Potency (%) ([1]; GH release, relative to GRF(1-29)NH2 = 100, 4-point assay): 100%

Molecule: The analogues (D-Phe-Gln-Trp-Ala-Val-N-methyl-D-Ala-His-Leu-methylester and D-F5-Phe-Gln-Trp-Ala-Val-D-Ala-His-Leu-methylester)
half-maximal effective dose [5]: 5 to 10 nM
inhibition of amylase release produced by bombesin, half-maximal effective dose [6]: 5 to 10 nM

Molecule: [N-Ac-Tyr^1, D-Arg^2]GRF(1-29)NH2
IC50 [7]: ~1000 nM

B1: BIM-26120, pGlu-Gln-Trp-Ala-Val-Gly-His-Sta-NH2 (Litorin analog) (peptide)
peptide: [pGlu]QWAVGH[Sta]-NH2
SMILES: CC(C)C[C@H](NC(=O)[C@H](Cc1c[nH]cn1)NC(=O)CNC(=O)[C@@H](NC(=O)[C@H](C)NC(=O)[C@H](Cc1c[nH]c2ccccc12)NC(=O)[C@H](CCC(N)=O)NC(=O)[C@@H]1CCC(=O)N1)C(C)C)[C@@H](O)CC(N)=O
IC50 [8]: 150 nM
bombesin-stimulated [3H]Thymidine uptake, IC50 [3]: 165 nM

More lines, now with the values ahead:

IC50 (bombesin receptor): 5 to 10 nM
Molecule: COC(=O)[C@H](CC(C)C)NC(=O)[C@H](Cc1c[nH]cn1)NC(=O)[C@@H](C)NC(=O)[C@@H](NC(=O)[C@H](C)NC(=O)[C@H](Cc1c[nH]c2ccccc12)NC(=O)[C@H](CCC(N)=O)NC(=O)[C@H](N)Cc1c(F)c(F)c(F)c(F)c1F)C(C)C [D-F5-Phe-Gln-Trp-Ala-Val-D-Ala-His-Leu-methylester] (H-[dPhe(F5)]QWAV[dA]HL-OMe)

IC50 (bombesin receptor): 5 to 10 nM
Molecule: COC(=O)[C@H](CC(C)C)NC(=O)[C@H](Cc1c[nH]cn1)NC(=O)[C@@H](C)N(C)C(=O)[C@@H](NC(=O)[C@H](C)NC(=O)[C@H](Cc1c[nH]c2ccccc12)NC(=O)[C@H](CCC(N)=O)NC(=O)[C@H](N)Cc1ccccc1)C(C)C [D-Phe-Gln-Trp-Ala-Val-N-methyl-D-Ala-His-Leu-methylester] (H-[dF]QWAV[dNMeA]HL-OMe)

bombesin-stimulated [3H]Thymidine uptake, IC50 [3]: 3.3 nM
IC50 [4]: 1.4 nM
Molecule: BIM-26136, D-Nal-Gln-Trp-Ala-Val-Gly-His-Leuψ[CH2NH]Phe-NH2 (Litorin analog) (peptide)

bombesin-stimulated [3H]Thymidine uptake, IC50 [3]: 4.77 nM
IC50 [4]: 0.88 nM
Molecule: BIM-26182, D-Cpa-Gln-Trp-Ala-Val-Gly-His-β-Leu-NH2 (Litorin analog) (peptide)
